Values of other authors in PMC9897510.
One block for each substance: values may come before it.

Assays:
FhuA (Escherichia coli) = FhuA (Escherichia coli) (UniProt P06971)
[1] = target: atrial natriuretic factor receptor (UniProt P16066)
FOXM1c (Homo sapiens) = FOXM1c (Homo sapiens) (UniProt Q08050)
FOXM1b (Homo sapiens) = FOXM1b (Homo sapiens) (UniProt Q08050)

Sequence of UniProt P06971 (P06971 34-747): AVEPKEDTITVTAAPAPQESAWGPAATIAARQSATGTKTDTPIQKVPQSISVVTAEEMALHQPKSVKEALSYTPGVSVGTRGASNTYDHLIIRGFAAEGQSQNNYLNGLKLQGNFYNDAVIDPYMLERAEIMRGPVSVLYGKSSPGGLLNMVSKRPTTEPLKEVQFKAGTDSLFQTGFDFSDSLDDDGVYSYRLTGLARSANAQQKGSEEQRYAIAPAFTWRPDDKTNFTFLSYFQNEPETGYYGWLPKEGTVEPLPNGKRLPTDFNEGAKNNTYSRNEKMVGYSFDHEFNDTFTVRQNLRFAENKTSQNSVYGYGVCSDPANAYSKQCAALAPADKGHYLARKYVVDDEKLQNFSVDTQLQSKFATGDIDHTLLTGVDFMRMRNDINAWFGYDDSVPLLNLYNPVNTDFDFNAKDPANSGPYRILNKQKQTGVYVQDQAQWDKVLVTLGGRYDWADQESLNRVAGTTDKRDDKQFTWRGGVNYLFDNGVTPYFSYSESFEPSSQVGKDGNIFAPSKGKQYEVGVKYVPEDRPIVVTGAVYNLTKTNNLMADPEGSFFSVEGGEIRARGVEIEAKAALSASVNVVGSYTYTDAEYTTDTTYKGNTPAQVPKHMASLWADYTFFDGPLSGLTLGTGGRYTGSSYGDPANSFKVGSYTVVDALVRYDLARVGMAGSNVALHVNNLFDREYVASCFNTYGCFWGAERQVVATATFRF
Sequence of UniProt P16066 (P16066 33-1061): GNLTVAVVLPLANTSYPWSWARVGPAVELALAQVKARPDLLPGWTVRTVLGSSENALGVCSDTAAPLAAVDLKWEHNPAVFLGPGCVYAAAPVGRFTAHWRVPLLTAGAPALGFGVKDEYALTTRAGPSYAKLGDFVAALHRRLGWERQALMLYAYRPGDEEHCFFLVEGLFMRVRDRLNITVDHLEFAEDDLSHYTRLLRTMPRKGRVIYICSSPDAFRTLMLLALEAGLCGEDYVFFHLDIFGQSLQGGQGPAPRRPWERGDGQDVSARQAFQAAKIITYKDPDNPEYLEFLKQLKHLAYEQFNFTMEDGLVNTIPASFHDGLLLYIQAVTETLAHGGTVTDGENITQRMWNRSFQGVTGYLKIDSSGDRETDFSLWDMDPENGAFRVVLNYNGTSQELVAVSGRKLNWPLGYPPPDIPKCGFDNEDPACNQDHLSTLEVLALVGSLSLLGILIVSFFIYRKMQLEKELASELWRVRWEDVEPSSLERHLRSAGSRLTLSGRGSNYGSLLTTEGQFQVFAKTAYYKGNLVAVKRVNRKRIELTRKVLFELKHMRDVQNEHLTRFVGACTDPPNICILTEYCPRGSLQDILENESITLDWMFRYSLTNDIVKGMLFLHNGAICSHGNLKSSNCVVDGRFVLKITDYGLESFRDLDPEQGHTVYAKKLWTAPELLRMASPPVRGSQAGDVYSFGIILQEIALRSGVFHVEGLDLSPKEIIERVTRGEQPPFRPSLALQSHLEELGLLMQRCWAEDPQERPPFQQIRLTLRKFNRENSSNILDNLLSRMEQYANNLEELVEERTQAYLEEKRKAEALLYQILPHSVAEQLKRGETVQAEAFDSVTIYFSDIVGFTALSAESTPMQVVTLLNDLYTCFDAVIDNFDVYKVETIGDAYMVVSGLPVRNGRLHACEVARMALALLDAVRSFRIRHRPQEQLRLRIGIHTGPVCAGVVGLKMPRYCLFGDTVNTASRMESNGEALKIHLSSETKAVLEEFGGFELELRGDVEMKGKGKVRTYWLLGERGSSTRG

Kd (FhuA (Escherichia coli)): 1.2 µM
Substance: Microcin J25 (from UniProt Q9X2V7)

Kd [1]: 0.6 µM
Substance: anantin (from UniProt Q7M0J9)

Substance: thiostrepton (from UniProt P0C8P8)
Ki (FOXM1c (Homo sapiens)): 11 µM
Ki (FOXM1b (Homo sapiens)): 31 µM
